The values that follow come from patent US20180022822A1, “NOVEL ANTI-FIBROBLAST ACTIVATION PROTEIN (FAP) BINDING AGENTS AND USES THEREOF” (Mabimmune Diagnostics AG, priority 2016, published 2018).

In experiment [1] the test system is human blood plasma clotting. Description: rotational thromboelastometry (ROTEM, NATEM) of human blood plasma. The method, then: Two batches of peripheral blood were taken from a single healthy subject in sodium citrate tubes and platelet-free blood plasma was prepared by centrifugation. Blood plasma from each tube was pooled and immediately aliquoted for storage at −80° C. The plasma has an FAP level of 130 ng/ml by ELISA. Plasma samples were treated with NI-206.82C2 (n=3) against FAP or 43A11 control (n=3) diluted in sterile saline and added to fresh fast thawed plasma such that the final concentration of antibody in the sample was 0.000667 nM, 0.00667 nM, 0.0667 nM, 0.667 nM 6.667 nM of plasma. Following 1 hr incubation with the antibody at 37° C., NATEM analysis was performed according to the manufacturer's instructions by using STAR-TEM reagent to observe the native blood clotting process after an incubation time with the antibodies of 1 h at 37° C. with the antibody before starting measurement. Statistical analysis was performed using a two-way ANOVA (*p<0.05, ** p<0.01, *** p<0.005, **** p<0.001).

The target in experiment [2] is T1, rhFAP and FAP homologues (DPP4, DPP8, DPP9, POP/PREP) (Homo sapiens, UniProt Q12884).
T1 construct: purchased Sino Biologicals 10464-H07H
T1 sequence (Q12884 26-760 limits assumed): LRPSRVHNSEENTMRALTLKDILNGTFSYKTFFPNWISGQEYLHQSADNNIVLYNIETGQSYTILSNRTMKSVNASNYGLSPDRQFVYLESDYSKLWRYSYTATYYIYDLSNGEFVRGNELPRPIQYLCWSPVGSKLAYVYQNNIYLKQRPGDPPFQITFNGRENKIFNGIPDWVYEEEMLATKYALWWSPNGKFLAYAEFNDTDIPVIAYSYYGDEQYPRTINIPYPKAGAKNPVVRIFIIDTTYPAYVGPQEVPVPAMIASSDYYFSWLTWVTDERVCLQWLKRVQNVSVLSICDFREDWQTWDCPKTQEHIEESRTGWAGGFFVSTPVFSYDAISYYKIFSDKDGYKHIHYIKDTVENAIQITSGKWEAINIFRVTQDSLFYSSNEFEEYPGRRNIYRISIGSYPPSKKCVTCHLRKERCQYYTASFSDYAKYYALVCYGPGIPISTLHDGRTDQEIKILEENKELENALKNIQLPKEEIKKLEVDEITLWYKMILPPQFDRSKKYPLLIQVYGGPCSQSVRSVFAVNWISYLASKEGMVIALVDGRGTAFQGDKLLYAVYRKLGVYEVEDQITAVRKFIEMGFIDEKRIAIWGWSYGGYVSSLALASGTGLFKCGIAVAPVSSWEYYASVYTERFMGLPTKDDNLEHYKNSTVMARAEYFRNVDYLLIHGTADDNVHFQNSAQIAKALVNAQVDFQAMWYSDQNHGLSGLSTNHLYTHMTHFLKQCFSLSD
Put plainly: inhibition assays on SB9 oligopeptidase family enzymes. In kind it is biochemical. To be noted: 0-1000 nM antibody. The method, then:
To determine the inhibitory ability of the antibody a black 96 well plate was blocked for 1 h with blocking buffer. NI-206.82C2 was pipetted at concentrations of 1000, 50, 10, 3.03, 1.01, 0.031, 0.001, and 0 nM in PBS into the according wells. The enzymes were added at a concentration of 0.2 nM. Finally, fluorgenic substrates were then added to the well at a concentration equal to the Michaelis constant (Km) and the velocity of the substrate cleavage was quantified by fluorescence at 360 nm excitation and 460 nm emission. H-Gly-Pro-AMC (AAT Bioquest, 13450) was used for DPP4, DPP9, and DPP8. Z-Gly-Pro-AMC (BaChem, 11145) was used to evaluate the activity of POP/PREP. FAP activity was assessed using DQ-gelatin (Life Technologies, D12054) and cleavage quantified at 495 nm excitation and 515 nm emission.

The test system of experiment [3] is obstructive human coronary thrombi and aortic atherosclerotic plaque. Put plainly: confocal immunofluorescence on human coronary thrombi and aortic atherosclerotic plaque. Conditions: Cy3 labelled antibody. The method, then: NI-206.82C2 was labelled with Cyanine 3 for fluorescent imaging (Cy3 conjugation kit: Innova Biosciences, 340-0030) and antibody labelling was validated using a spectophotometer. Cryosections from myocardial infarction causing obstructive human coronary thrombi (FIG. 14, A) and human aortic atherosclerotic plaque (FIG. 14, B) were fixed for 5 minutes in ice cold acetone and allowed to dry for 10 minutes before washing in PBS. The sections were then incubated for 1 hr at room temperature in 5% BSA in PBS, and then incubated with Cyanine 3 labelled antibodies overnight at 4° C., before washing three times in PBS before incubation with DAPI at 0.5 μg/mL. Sections were then washed three additional times in PBS and mounted in Lisbeth's mounting medium before imaging on a SP8 confocal microscope (Leica Microsystems).

In experiment [4] the target is T2, active recombinant human FAP (Homo sapiens, UniProt Q12884).
T2 construct: purchased Sino Biologicals 10464-H07H
T2 sequence (Q12884 26-760 limits assumed): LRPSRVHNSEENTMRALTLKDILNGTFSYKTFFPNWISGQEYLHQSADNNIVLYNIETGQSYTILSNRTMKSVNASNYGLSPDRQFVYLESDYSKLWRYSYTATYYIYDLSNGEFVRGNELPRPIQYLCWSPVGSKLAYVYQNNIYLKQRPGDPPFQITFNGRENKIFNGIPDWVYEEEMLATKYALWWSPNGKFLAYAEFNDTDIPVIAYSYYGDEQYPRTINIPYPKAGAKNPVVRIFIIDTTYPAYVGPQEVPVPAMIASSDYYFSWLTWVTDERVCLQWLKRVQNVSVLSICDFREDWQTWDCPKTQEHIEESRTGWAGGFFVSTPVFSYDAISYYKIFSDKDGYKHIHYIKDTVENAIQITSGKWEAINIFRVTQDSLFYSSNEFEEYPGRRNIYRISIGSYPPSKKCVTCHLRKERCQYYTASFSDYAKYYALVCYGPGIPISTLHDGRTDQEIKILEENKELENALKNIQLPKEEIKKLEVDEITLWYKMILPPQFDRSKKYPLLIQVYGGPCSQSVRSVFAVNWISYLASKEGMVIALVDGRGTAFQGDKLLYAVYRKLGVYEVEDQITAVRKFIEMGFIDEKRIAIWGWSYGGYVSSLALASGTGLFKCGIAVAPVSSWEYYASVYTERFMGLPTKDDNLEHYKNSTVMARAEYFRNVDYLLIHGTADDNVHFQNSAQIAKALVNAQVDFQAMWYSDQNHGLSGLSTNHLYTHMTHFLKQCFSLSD
Description: DQ-gelatin cleavage inhibition, active recombinant human FAP. In kind it is biochemical. How it is done: A black flat bottom standard 96-well ELISA plate was blocked for 1 hour at 37° C. using sterile blocking buffer: 5% bovine serum albumin (BSA) in phosphate buffered saline (PBS). The blocking buffer was removed and replaced with: 40 μL of fresh blocking buffer, 40 μL of antibody in PBS, 10 μL of 20 nM active recombinant human FAP (Sino Biologicals, 10464-H07H) in PBS, and 10 μL of DQ-Gelatin (Molecular Probes, D-12054) in PBS. Fluorescence intensity was measured at 485 nm excitation and 530 nm emission every 3 min over a total time of 45 min, while gently shaking the plate for twenty seconds before every measurement. To calculate the fractional activity, the steady state velocity (Δ 530 nm emission/Δ time) […].
To determine the inhibitory ability of NI-206.82C2 against active recombinant human FAP (Sino Biologicals, 10464-H07H) a black 96 well ELISA plate was blocked for 1 h at 37° C. with sterile 5% BSA in PBS. After removing the blocking solution, 40 uL of 12.5% BSA in PBS was added to each well. Then FAP-targeting agents (NI-206.82C2, F19, and Val-Boro-Pro (PT-100; Point therapeutics)) were added to the appropriate wells for a final concentration of 500, 10, 3.03, 1.01, 0.031, 0.001, and 0 nM. 10 uL of active recombinant human FAP was then added to all the wells for a final assay concentration of 20 nM. […]

The mark [5] stands for this setting: increasing antibody concentrations.

B1: NI-206.82C2: human-derived recombinant anti-FAP antibody; VH SEQ ID NO: 2 or 4 (PIMC), VL SEQ ID NO: 6 (antibody, V domains shown)
VH: QVQLQQSGPGLVKPSQTLSLTCAISGDSVSSNSVTWNWIRQSPSRGLEWLGRTYYRSKWYNDYAVSVKGRITINPDTSKNQFYLQLKSVTPEDAAVYYCARDSSILYGDYWGQGTLVTVSS
VL: QAVLTQPSSLSASPGASASLTCTLPSGINVGTYRIFWFQQKPGSPPQYLLSYKSDSDNHQGSGVPSRFSGSKDASANAGILLISGLQSEDEADYYCMIWHSSAWVFGGGTKLTVL
As for B1, the clot formation time result in experiment [1] (0.000667-6.667 nM antibody) is reported as “dose dependent prolongation”. In addition, in experiment [1] (setting [5]), the clot rigidity entry is on record as “reduces”, the maximum clot elasticity result is listed as “decreases” and the maximum clotting angle result is given as “reduces”. Moreover, in experiment [2], the “inhibition selectivity for rhFAP over FAP homologues” value is “selectively inhibits rhFAP, but not FAP homologues”. The “binding to human coronary thrombi and aortic atherosclerotic plaque” value in experiment [3] was “binds”. Also, in experiment [4], the “potency for inhibiting active recombinant human FAP compared to Val-boro-Pro and F19” value is recorded as “higher potency”.
